Assay [1] addresses CD8 (Homo sapiens). As to the kind of experiment: titration on CD8+ T cells, gMFI (flow cytometry). In general terms: In flow cytometry, cells or beads pass a laser one at a time.
Assay [2] has as its target CD8 (Homo sapiens). Briefly: titration on the CXCR3 CD39 CD8 T cell subset, gMFI (flow cytometry).
For assay [3], the target named is T1, CD8alpha tagged with a hexahistidine peptide (UniProt P01732 22-182, limits assumed).
T1 construct: Soluble analyte in the Octet assays; not shown: hexahistidine tag (HHHHHH)
As to the kind of experiment: BLI (Octet), antibody captured on AHC anti-human Fc biosensors, analyte 6.25-200 nM. On the procedure: The affinities of the parental antibodies anti-KIR2DL1/L2/L3 IPH2102 IgG1 r mAb and anti-CD8alpha Mb1 b IgG1r mAb were also analyzed. For kinetic analysis, the parental antibodies were separately captured to AHC (anti-human Fc) biosensors using a load concentration of 1.25 ug/ml. For IPH2102 IgG1r mAb, the KIR2DL1, or KIR2DL3 analytes ranged from 6.25 nM to 200 nM. Analyte binding following capture was analyzed first for association of KIR2DL1 or KIR2DL3 followed by the dissociation of each analyte independently. Likewise, for the Mb1b IgG1r mAb, the CD8alpha analyte ranged from 6.25 nM to 200 nM. Analyte binding following capture was analyzed first for association followed by the dissociation of CD8alpha.

In assay [4] the target is T2, KIR2DL3 tagged with a hexahistidine peptide (UniProt P43628 22-245, limits assumed).
T2 construct: Soluble analyte in the Octet assays; not shown: hexahistidine tag (HHHHHH)
Briefly: BLI (Octet), CrossMAb captured on AHC anti-human Fc biosensors, analyte 6.25-200 nM.

In assay [5] the target is T1, CD8alpha tagged with a hexahistidine …. The assay is described as above.
In assay [6] the target is T3, KIR2DL1 tagged with a hexahistidine peptide (UniProt P43626 22-245, limits assumed).
T3 construct: Soluble analyte in the Octet assays; also called KIRDL1; not shown: hexahistidine tag (HHHHHH)
Described as above.

CD8 (Homo sapiens), sequence (chain, as listed by the source): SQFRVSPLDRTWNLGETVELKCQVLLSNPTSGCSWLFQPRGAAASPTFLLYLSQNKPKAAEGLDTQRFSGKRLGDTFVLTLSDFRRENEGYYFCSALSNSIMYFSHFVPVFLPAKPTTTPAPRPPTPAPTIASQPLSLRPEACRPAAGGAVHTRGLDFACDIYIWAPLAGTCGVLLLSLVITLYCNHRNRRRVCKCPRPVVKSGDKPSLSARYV
T1 sequence (P01732 22-182 limits assumed): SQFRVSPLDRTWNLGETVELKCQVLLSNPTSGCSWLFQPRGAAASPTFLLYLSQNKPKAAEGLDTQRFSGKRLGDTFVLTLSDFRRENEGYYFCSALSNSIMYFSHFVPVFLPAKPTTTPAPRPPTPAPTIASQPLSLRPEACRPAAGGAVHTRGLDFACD
T3 sequence (P43626 22-245 limits assumed): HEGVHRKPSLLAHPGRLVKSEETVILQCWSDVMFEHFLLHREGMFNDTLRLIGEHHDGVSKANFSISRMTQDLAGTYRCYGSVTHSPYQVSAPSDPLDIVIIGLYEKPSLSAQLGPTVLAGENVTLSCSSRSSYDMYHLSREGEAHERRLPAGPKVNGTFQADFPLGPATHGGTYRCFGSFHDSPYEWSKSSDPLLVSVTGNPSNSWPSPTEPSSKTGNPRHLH
T2 sequence (P43628 22-245 limits assumed): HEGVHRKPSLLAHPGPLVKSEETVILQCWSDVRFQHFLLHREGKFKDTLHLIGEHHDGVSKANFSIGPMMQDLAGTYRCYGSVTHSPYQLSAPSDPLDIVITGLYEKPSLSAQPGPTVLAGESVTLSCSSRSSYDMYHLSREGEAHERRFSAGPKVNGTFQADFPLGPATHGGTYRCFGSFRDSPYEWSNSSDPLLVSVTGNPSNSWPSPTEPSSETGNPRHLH

B1: KIR2DLxCD8 bispecific (bispecific antibody)
chain 1: QVQLVQSGAEVKKPGSSVKVSCKASGGTFSFYAISWVRQAPGQGLEWMGGFIPIFGAANYAQKFQGRVTITADESTSTAYMELSSLRSDDTAVYYCARIPSGSYYYDYDMDVWGQGTTVTVSS
chain 2: EIVLTQSPVTLSLSPGERATLSCRASQSVSSYLAWYQQKPGQAPRLLIYDASNRATGIPARFSGSGSGTDFTLTISSLEPEDFAVYYCQQRSNWMYTFGQGTKLEIK
chain 3: EVQLVESGGGLVQPGGSLRLSCAASGFNIKDTYIHFVRQAPGKGLEWIGRIDPANDNTLYASKFQGKATISADTSKNTAYLQMNSLRAEDTAVYYCGRGYGYYVFDHWGQGTLVTVSS
chain 4: DVQITQSPSSLSASVGDRVTITCRTSRSISQYLAWYQQKPGKVPKLLIYSGSTLQSGVPSRFSGSGSGTDFTLTISSLQPEDVATYYCQQHNENPLTFGGGTKVEIK
The term EC50 (read off the curve) denotes the midpoint of the concentration-response curve. On to B1, for which the “EC50 (read off the curve)” value in assay [1] is approximately 40 nM; in assay [2], approximately 100 nM.

B2: Mb1b IgG1 r mAb (antibody, V domains shown)
VH: EVQLVESGGGLVQPGGSLRLSCAASGFNIKDTYIHFVRQAPGKGLEWIGRIDPANDNTLYASKFQGKATISADTSKNTAYLQMNSLRAEDTAVYYCGRGYGYYVFDHWGQGTLVTVSS
VL: DVQITQSPSSLSASVGDRVTITCRTSRSISQYLAWYQQKPGKVPKLLIYSGSTLQSGVPSRFSGSGSGTDFTLTISSLQPEDVATYYCQQHNENPLTFGGGTKVEIK
notes: also called Mb1b parental antibody; anti-CD8alpha Mb1 b IgG1r mAb
As usually defined, the Kd is a measure of binding affinity in units of concentration. Lower therefore signals a tighter complex. In turn, B2 gave a dissociation constant Kd in assay [3] of 2.6 nM. This counts as single-digit nanomolar.

B3: IPH2102/Mb1b CrossMAb (bispecific antibody)
chain 1: QVQLVQSGAEVKKPGSSVKVSCKASGGTFSFYAISWVRQAPGQGLEWMGGFIPIFGAANYAQKFQGRVTITADESTSTAYMELSSLRSDDTAVYYCARIPSGSYYYDYDMDVWGQGTTVTVSS
chain 2: EIVLTQSPVTLSLSPGERATLSCRASQSVSSYLAWYQQKPGQAPRLLIYDASNRATGIPARFSGSGSGTDFTLTISSLEPEDFAVYYCQQRSNWMYTFGQGTKLEIK
chain 3: EVQLVESGGGLVQPGGSLRLSCAASGFNIKDTYIHFVRQAPGKGLEWIGRIDPANDNTLYASKFQGKATISADTSKNTAYLQMNSLRAEDTAVYYCGRGYGYYVFDHWGQGTLVTVSS
chain 4: DVQITQSPSSLSASVGDRVTITCRTSRSISQYLAWYQQKPGKVPKLLIYSGSTLQSGVPSRFSGSGSGTDFTLTISSLQPEDVATYYCQQHNENPLTFGGGTKVEIK
For B3, the Kd in assay [4] was found to be 0.88 nM; in assay [5], 2.07 nM; in assay [6], 1.52 nM.

Values taken from patent US20240101673A1 (MOZART THERAPEUTICS, published 2024).
